This test deals with GII.4 P-domain (crystallisation construct) (human norovirus GII.4). Description: crystal structure; P-domain and Fab mixed 1:1.5, complex isolated by gel filtration; crystals in 0.1 M BIS-TRIS propane pH 8.5, 0.2 M KSCN, 20% w/v PEG 3350, 20 °C.

In turn, “GII.4 P-domain (crystallisation construct) (domain or fragment)” displayed a stoichiometry N of 2.
